B1: Metastasis-associated protein MTA3, residues 265 to 317; numbered along this chain, Q9BTC8 (parent)
chain: RDEMEEWSASEASLFEEALEKYGKDFNDIRQDFLPWKSLTSIIEYYYMWKTTD

Variants of: B1
Test: abundance fitness (aPCA) (normalised: wild type 0, dead -1); higher = more abundant; growth selection in yeast, the domain comes from the species named
Details: Homo sapiens

Abundance fitness: each site, then its substitutions
Y22: H -0.079 | A -0.687 | M -0.792 | V 0.068 | T -0.599 | N -0.712 | W -0.84 | P -0.707 | S -0.53
K50: R -0.288 | D -0.593 | P -0.472 | G -0.877 | N 0.024
S38: Y -0.711 | F -0.844 | L -0.69 | P -0.563 | G 0.47 | W -0.992 | M -0.159 | R -0.749
D53: Y -0.543 | R -0.164 | I -0.566
W36: G -0.484 | C -0.733 | E -0.884 | Y -0.615 | M -0.677 | A -0.788 | L -0.749 | I -0.874 | K -0.217 | T -0.696
I42: R -0.69 | C -0.711 | L -0.658 | V -0.475 | P -0.798 | D -0.828 | M -0.833 | S -0.713 | A -0.98
E44: V -0.758 | Q 0.015 | G -0.691 | D -0.145 | Y -0.834 | M -0.961 | C -0.808 | H -0.438 | P -0.922
K37: I -0.586 | L -0.802 | V -0.842 | F -0.785 | N -0.803 | M -0.719 | P -0.877
K21: G -0.842 | Q -0.685 | N -0.984 | Y -0.571 | V -0.444 | F -0.504 | S -0.745
L39: A -0.6 | D -0.483
D25: L -0.741 | G -0.47 | V -0.818 | W -0.776 | E -0.087 | N 0.356 | F -0.594 | H -0.125 | K 0.375
S8: G -0.571 | W -0.303 | I -0.518 | F -0.935 | K -0.696 | Q -0.749 | M -0.771 | L -0.889 | A -0.715 | H -0.696
E6: W -0.862 | H 0.415 | F -0.159 | M 0.08 | L -0.757 | V 0.443 | G -0.302
M4: V -0.422 | S -0.273 | W -0.666 | G -0.947
N27: E 0.431 | T -0.148 | I 0.743 | S 0.037 | Y -0.305 | M -0.464
W7: G -0.427 | K -0.549 | L -0.71 | V -0.979 | R -0.715 | E -0.925 | T -0.884 | C -0.952
S13: D -0.326 | T -0.212 | G -0.015 | C -0.134 | H -0.242 | K 0.502 | Y -0.631 | W -0.689
M48: F 0.204 | C -0.086 | G -0.257 | T -0.103 | N -0.144 | Q 0.133
L14: V -0.686 | W -0.956 | K -0.168 | F -0.842 | H -0.945 | Y -0.353 | M -0.688 | R -0.602 | E -1
K24: C 0.163 | I -0.536 | S -0.108 | N 0.333 | Q -0.062 | Y -0.331 | E -0.133
E3: W -0.873 | V -0.151 | L 0.135 | M 0.132 | Y 0.938 | A -0.342
E16: H -0.202 | M -0.608 | F -0.422 | Y -0.185 | G -0.907 | T -0.686 | V -0.589
S10: K 0.219 | W 0.031 | T -0.091 | M -0.152 | F -0.216 | Q -0.252 | P -0.743
T52: C 0.191 | N 0.2 | R 0.08 | L -0.298 | H -0.405 | M -0.402 | I -0.292 | V -0.097
R1: K 0.028 | M 0.11 | P -0.529 | T 0.299 | S -0.259 | W -0.044 | A 0.304
E20: M -0.561 | L -0.126 | Y -0.506 | S -0.366 | F -0.54
A9: R -0.356 | C -0.564 | P -0.29 | T -0.332 | F -0.726 | G -0.714 | V -0.359 | Y -0.916 | E -0.042
F15: D -0.578 | W -1.02 | K -0.86 | A -0.861 | H 0.397 | G -0.788 | V -0.316 | M -0.528
E11: Q -0.811 | T -0.567 | W -0.78 | I -1.1 | P -1.04 | A -0.623
G23: T -0.92 | H -0.784 | Q -0.759 | S -0.792 | V -0.888 | E -0.815 | L -0.745
D2: H -0.296 | N 0.058 | W -0.323 | M 0.033 | K 0.523 | G 0.204 | R -0.285 | T 0.271
A12: D -0.875 | W -0.816 | C -0.273 | Y -0.768 | V 0.076 | E -0.471 | F -0.941 | K 0.358 | G -0.618 | H -0.041
D32: S 1.09
S41: L -0.577 | H -0.717 | D 0.05 | K -0.781 | Q -0.226 | I -1.09 | E 0.161 | G -0.954 | T -0.804 | A -0.139
T40: Q 0.195 | A -0.322 | Y -0.571 | N 0.129 | C -0.328 | V -0.714 | R -0.029 | W -0.898
D28: F -0.015 | S 0.644 | P -0.522 | Y 0.322 | T 0.59 | I 0.324 | E 0.305 | K 0.9
E5: D -0.341 | H -0.636 | V -0.719 | M -0.209 | N -0.09 | C -0.341 | S -0.107
Y46: M -0.99 | C -0.976 | H -0.176 | G -0.422 | V -0.98 | W -0.62 | P -0.598
F26: S -0.959
A18: F -0.902 | Q -0.542 | G 0.438 | P -0.912 | Y -0.703 | K -0.554 | H -0.873
T51: M -0.542 | L -0.147 | C -0.244 | R -0.097 | Y 0.304 | V -0.624 | A 0.185 | N -0.027
Y47: R 0.31 | E 0.516 | T 0.398 | A 0.387 | G 0.027 | H 0.196 | K 0.375
Y45: G -0.98 | E -0.77 | V -1.01
I43: W -0.559 | H -0.075 | L -0.689 | T -0.193 | F -0.474 | A -0.148 | E 0.392 | C -0.517 | N -0.7 | Y -0.304
W49: E 0.075 | P -0.599 | N 0.404 | M 0.353 | V -0.204 | Y 0.077 | K 0.497 | I -0.04
F33: L -0.169
L19: R -0.607 | Q -0.34 | Y 0.49 | M -0.255 | S -0.722 | C -1.03 | F 0.459 | A -0.67 | K -0.838
E17: S -0.428 | K -0.197 | M -0.333 | Y -0.39 | L -0.175 | G -0.772 | F -0.515 | P -0.756

Reference: the Human Domainome abundance scans (Beltran et al. 2025)
